In patent US20260265403A1 (TJ BIOPHARMA SHANGHAI, published 2026):

What was measured:
[1] = target: T1, CD24-his protein (human, UniProt P25063 27-59, posttranslational modification (purified from mammalian cell)); assay: standard ELISA on CD24-his
T1 construct: Purified from mammalian (HEK293) cells; also called soluble recombinant CD24 protein; human HEK293 purified CD24-his protein; not shown: His tag
T1 chain (looked up): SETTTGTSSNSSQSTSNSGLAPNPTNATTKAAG
Source text: (§1) Since human CD24 contains only 33 core amino acids, and is heavily glycosylated, two different proteins were used to perform protein binding assay. CD24-his protein was purified from mammalian cell and as modified by posttranslational modification. While CD24-GST was purified from E. coli with no PTM.

[2] = target: T1, CD24-his protein; assay: ELISA, CD24-his (HEK 293), unit taken from the concentration axis
Source text: as §1

[3] = target: T2, human CD24 on cells (human, UniProt P25063 27-59); assay: flow cytometry (GMFI), A549 cells
T2 construct: whole, on cells; One molecule for all cell lines; the cell line is named under assay or readout; also called cell surface CD24; cell-based CD24
T2 chain (looked up): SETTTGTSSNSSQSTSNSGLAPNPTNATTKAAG
Protocol: (§2) Antibodies were 4-fold serially diluted from 40 μg/mL and incubated with MCF7 cells (panel A), OVCAR3 cells (panel B), A549 cells (panel C), and NALM6 cells (panel D) cells for 30 minutes at 4° C. in FACS buffer. Then, PE conjugated-anti-human IgG (H+L) antibody was added and incubated for another 30 minutes. After washing, geometric mean fluorescence intensity (GMFI) of PE was evaluated by FACS.
(§3) Here we used four CD24 highly expressed tumor cell lines MCF7 (breast cancer), OVCAR3 (ovarian cancer), A549 (lung cancer), and NALM6 ([…]).

[4] = target: T2, human CD24 on cells; assay: flow cytometry (GMFI), OVCAR3 cells
Protocol: as §2, §3

[5] = target: T2, human CD24 on cells; assay: flow cytometry on MCF7, OVCAR3, A549 and NALM6 cells
Protocol: as §2, §3

[6] = target: T2, human CD24 on cells; assay: flow cytometry (GMFI), MCF-7 cells
Protocol: as §2, §3

[7] = target: T2, human CD24 on cells; assay: cell-based or functional assay
[8] = target: T2, human CD24 on cells; assay: flow cytometry (GMFI), NALM6 cells
Protocol: as §2, §3

B1: 4451HM15-IgG1-3A (antibody, V domains shown)
VH: QVQLVQSGAEVKKPGASVKVSCKASGYDFTGYHMGWVRQAPGQGLEWMGEINPITSDKYFNQKFKSRVTMTRDTSISTAYMELSRLRSDDTAVYYCARRDYGTSLDYWGQGTTVTVSS
VL: DIQLTQSPSFLSASVGDRVTITCRASASISKYLAWYQQKPGKAPKLLIYAGSTLHSGIPSRFRGSGSGTEFTLTISSLQPEDFATYYCQQHNEYPITFGQGTKLEIKR
notes: Produced in a CHO-based system
For B1, the EC50 [1] was 10.1 µg/mL, the EC50 [2] was 0.0101 µg/mL and the “EC50 (read off the curve)” value [3] was ~0.2 µg/mL. The “EC50 (read off the curve)” value [4] was ~0.3 µg/mL, the EC50 [5] was 1.2 to 2.11 nM and the “EC50 (read off the curve)” value [6] was ~0.2 µg/mL. For the same binder, the “EC50 of macrophage mediated phagocytosis against multiple tumor cells” value [7] was 1.97 to 2.45 nM and the “EC50 (read off the curve)” value [8] was ~0.3 µg/mL.
